Reference: the supplement of paper PMC9170038

Test system: MS2 coat protein
Test: apparent KD of MS2 coat protein; designed switch direction (-1 OFF switch, 1 ON switch): -1; higher = weaker reporter binding
In short: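 Designed RNA switches sharing common flanks were transcribed on Illumina chips by stalled E. coli RNA polymerase. They were titrated with SNAP-549-labelled MS2 coat protein, from 0.7 or 1.5 nM doubling to 3 µM, in Tris-HCl pH 7.5 buffer with KCl, MgCl2, BSA, DTT, tRNA and Tween-20. Titrations ran without input, with 200 uM small-molecule ligand, or with an oligonucleotide input. The apparent KD of each design is the median over its clusters, after curve-fitting of normalised cluster fluorescence.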

[1] = input ligand: microRNA oligo, concentration not stated
[2] = Eterna round: R95, input ligand: microRNA oligo, concentration not stated
[3] = Eterna round: R95, input ligand: FMN 200 uM
[4] = Eterna round: R95, input ligand: none

| Sequence | apparent KD of MS2 coat protein (input ligand: FMN 200 uM) [nM] | apparent KD of MS2 coat protein [1] [nM] | apparent KD of MS2 coat protein (input ligand: none) [nM] | apparent KD of MS2 coat protein [2] [nM] | apparent KD of MS2 coat protein [3] [nM] | apparent KD of MS2 coat protein [4] [nM] |
| --- | --- | --- | --- | --- | --- | --- |
| UGUCAGAUGGUAGGAUAUCCAUAUCGAGUGUCCCUUUCCUAACAUGAGGAUCACCCAUGUCGGUGGGAGAAGGGCCGUAUGGUG [salish99_ExNG02_R04_034] (Eterna round: R96, puzzle: Exclusion NG 2) | 12.5 | 11.5 | 14.1 |  |  |  |
| UGUCAGAUGGUAGGAUAUUCAUAUCGAGUGACCCUUUCAUAACAUGAGGAUCACCCAUGUCGGUGGGAGAAGGGCCGUAUGGUG [salish99_ExNG02_R04_030] (Eterna round: R96, puzzle: Exclusion NG 2) |  | 22.7 |  |  |  |  |
| UGUGUCUCAGGAGGAUAUCUCUCGGUUGCCGUUAGAGAAGGCUUGAAACAUGAGGAUCACCCAUGUAAAUGGCCCGUCCUCCAA [Lalecetege] (Eterna round: R96, puzzle: Exclusion NG 1) | 12.2 | 11.3 | 14.1 |  |  |  |
| UGUGUGUUUGUGAGGAUAUUGUGUGUGAAAGCGCGCGAGAAGGCACAUGAGGAUCACCCAUGUAAGGGCGCGCG [-26, -24 kcal, A 23%, 6bis-6] (Eterna round: R97, puzzle: Brourd's mod of Exclusion 4) | 20.2 |  | 23 |  |  |  |
| UGUGUUUUUGUGAGGAUAUACUGUUUGUUUUGUUUGUAGAAGGUACAUGAGGAUCACCCAUGUUGUGUUUGGUU [JR_BME4_Sub032] (puzzle: Brourd's mod of Exclusion 4) |  |  |  | 30.9 |  |  |
| UGUUGUCGCGCAGGAUAUGAGGAUCACCCAUAUCAGGAUAUCGAAAGAGAAUUUCUGAGGAUCACCCAGAAGGGCGGGACAACU [pwkr exNG2 2xF5 2xFMN.34] (Eterna round: R96, puzzle: Exclusion NG 2) | 210 | 35.6 | 42.9 |  |  |  |
| UGUUGUCGCGUAGGAUAUGUAUGAGGAUCACCCAUUAAUAAAUUUUAACCACGAGGAUCACCCGUGUAGAAGGACGGGACAACA [pwkr exNG2 2xF5 1xFMN.16] (Eterna round: R96, puzzle: Exclusion NG 2) | 37.9 | 18.1 | 30.6 |  |  |  |
| UGUUGUUACGUAGGAUAUUGCCAACAGGCAGUAGGAUAUGCGAAAGCAGAAGGACCGCCAACAGGCGAGAAGGACGGGUUAACA [pwkr exNG2 2xF7 2xFMN.11] (Eterna round: R96, puzzle: Exclusion NG 2) | 286 | 31.5 | 389 |  |  |  |
| UGUUUACAUGAGGAUCACCCAUGUCAGGAUAUGAUAUAUAUAUGGAAACAUAUAUAUAUCAGAAGGGACUAGUG [Jieuxxlusion 1 - Jieux - Exclusion 1] (Eterna round: R97, puzzle: Exclusion 1) | 156 |  | 87.7 |  |  |  |
| UGUUUAUAUGAAGGAUAUACUUAACAUGAGGAUCACCCAUGUGGUGUUGUGAGUGAGUGAGUUUAGUAGAAGGUCAAUUAUUUU [JMF's solution 31] (Eterna round: R96, puzzle: Exclusion NG 2) |  | 303 |  |  |  |  |
| UUAAAGUCAGGAUAUACAUGAGGAUCACCCAUGUAAAAUUUUAAUUUAAUUUGAAGGUGUAGAAGGGACAAAUU [Ex3 #36] (Eterna round: R97, puzzle: Exclusion 3) | 25.6 |  | 26 |  |  |  |
| UUAAAGUCAGGAUAUACAUGAGGAUCACCCAUGUAAAAUUUUAAUUUAAUUUUAAGGUGUAGAAGGGACAAUUU [Ex3 #2] (Eterna round: R97, puzzle: Exclusion 3) | 29.8 |  | 31.1 |  |  |  |
| UUAAAUCAUGUAGGAUAUGCAUAGCGAAGCUAUGCAGAAGGACAUGAGGAUCACCCAUGUGCUUGCGUCCGCGUACGGAUGCUA [Mat - Exclusion NG 1 - Mod of JL - D67] (Eterna round: R96, puzzle: Exclusion NG 1) | 423 | 84.4 | 123 |  |  |  |
| UUAAAUCAUGUAGGAUAUGCGUGGCGAAGCUAUGCAGAAGGACAUGAGGAUCACCCAUGUGCUAGCGUCCGCGUACGGAUGCAA [JL ENG1 1.21] (Eterna round: R96, puzzle: Exclusion NG 1) | 131 | 57.1 | 62 |  |  |  |
| UUAAAUCAUGUAGGAUAUGCUUUGCAAAGCGAAGCAGAAGGACAUGAGGAUCACCCAUGUGCUAGCGUCCGAGAACGGAUGCAA [Mat - Exclusion NG 1 - Mod of JL - D65] (Eterna round: R96, puzzle: Exclusion NG 1) | 501 | 60.6 | 61.5 |  |  |  |
| UUAAUGAUUGUGAGGAUAUUUGAUAGAUAGAUAUUAGAGAAGGUACAUGAGGAUCACCCAUGUGUGAUUAGAGA [Brourd's EX4 #70] (Eterna round: R97, puzzle: Brourd's mod of Exclusion 4) | 164 |  | 75.4 |  |  |  |

| Sequence | apparent KD of MS2 coat protein (input ligand: FMN 200 uM) [nM] | apparent KD of MS2 coat protein [1] [nM] | apparent KD of MS2 coat protein (input ligand: none) [nM] | apparent KD of MS2 coat protein [2] [nM] | apparent KD of MS2 coat protein [3] [nM] | apparent KD of MS2 coat protein [4] [nM] |
| --- | --- | --- | --- | --- | --- | --- |
| UUAAUGGCUGUGAGGAUAUCGGAUAGAUAGAUAUUCGAGAAGGCACAUGAGGAUCACCCAUGUGUGAUUAGAGA [Brourd's EX4 #63] (Eterna round: R97, puzzle: Brourd's mod of Exclusion 4) | 130 |  | 26 |  |  |  |
| UUAAUUAAUUAAGCGCAAGAUCACAUGAGGAUCACCCAUGUAUAGGAUAUCAGCUCGUUUAGAGCUGAGAAGGAUACAUAGCGC [ExNG3/2-A2] (Eterna round: R96, puzzle: Exclusion NG 3) | 738 | 155 | 172 |  |  |  |
| UUAAUUAAUUAAGGCUGAAGAUCACAUGAGGAUCACCCAUGUAAGGAUAUCAGCUCGUGUAGAGCUGAGAAGGUACAUGCAGCC [ExNG3/18-B3] (Eterna round: R96, puzzle: Exclusion NG 3) | 50.6 | 345 | 336 |  |  |  |
| UUAAUUAAUUAAUUAUAAGAUCAACAUGAGGAUCACCCAUGUGAGGAUAUCAGCUCGAUUAGAGCUGAGAAGGCACAAAUAAUU [ExNG3/16-B1] (Eterna round: R96, puzzle: Exclusion NG 3) | 147 | 53.6 | 44 |  |  |  |
| UUAAUUAAUUAAUUAUAAGAUCAACAUGAGGAUCACCCAUGUGAGGAUAUCAGCUCGUGUAGAGCUGAGAAGGCACAAAUAAUU [ExNG3/16-B3] (Eterna round: R96, puzzle: Exclusion NG 3) | 86.5 | 27.9 | 51.5 |  |  |  |
| UUACCAUGCCGCCUAAUAGCUUUUUGCUCGUCUUAUAUUACAUGAGGAUCACCCAUGUAAAACAUGUGGCGUGACCU [JL ViennaUCT Maridi mod 1] (puzzle: Sensor v3, turn-off variant 2) |  |  |  | 112 | 79.8 | 87.3 |
| UUAGAUAGGUCAGGAUAUCGAUGAUUGAAUAGUAUGAUUUACAUGAGGAUCACCCAUGUUAAAUACGAGAAGGGACGUUAGAUU [JR_ExcNG2_Sub021] (Eterna round: R96, puzzle: Exclusion NG 2) | 17.9 | 17.9 | 21.3 |  |  |  |
| UUAGAUUGAGGAUAUUUGGAUCCGUACAUGAGGAUCACCCAUGUGUGUAGCACAUUCAACGGAGAAGGCGGUUUCU [Eternabot (L1) Solution 73] (Eterna round: R97, puzzle: Exclusion 5) | 143 |  | 256 |  |  |  |
| UUAGGCUGAAGAUCAAUUAAUUAACAUGAGGAUCACCCAUGUAAGGAUAUCAGCUCGUUUAGAGCUGAGAAGGUACAUGCAGCC [ExNG3/18-A2] (Eterna round: R96, puzzle: Exclusion NG 3) | 351 | 121 | 118 |  |  |  |
| UUAGUUUUGCAAGGAUAUGUUUAUUUAUAGUUGCCUCUUACAUGAGGAUCACCCAUGUUUUACUUACAGAAGGUGCAAUGAUUU [JR_ExcNG2_Sub034] (Eterna round: R96, puzzle: Exclusion NG 2) |  | 138 |  |  |  |  |
| UUAUACGGUGAGGAUAUCUUCACUAAAGUGUGAAGAGAAGGCGCUACAUGAGGAUCACCCAUGUCUAUGGGCAG [Ex-6 Malc#17] (Eterna round: R96, puzzle: Exclusion 6) |  | 331 |  |  |  |  |
| UUAUACGGUGAGGAUAUCUUCACUAAAGUGUGAAGAGAAGGCGCUACAUGAGGAUCACCCAUGUCUAUGGGCAG [Ex-6 Malc#17] (puzzle: Exclusion 6) |  |  |  | 187 | 118 | 156 |
| UUAUAUAAUGUGAGGAUAUGCUGGUCGAUAGAUCAGCAGAAGGCACAUGAGGAUCACCCAUGUAGUAAAUUUUA [Mat - Exclusion 4 - JL Mod - D13] (puzzle: Brourd's mod of Exclusion 4) |  |  |  | 16.4 | 25.5 | 16.2 |
| UUAUAUAGAGUGAGGAUAUGCUGGUCCUUGGAUCAGCAGAAGGCACAUGAGGAUCACCCAUGUAAUAUAAUAUU [Mat - Exclusion 4 - JL Mod - D38] (puzzle: Brourd's mod of Exclusion 4) |  |  |  | 21.1 |  |  |
| UUAUAUAGUAUAGGAUAUUAGAGGAGAAUGGUGAUAGAGACAUGAGGAUCACCCAUGUGAGGAGAUAAGAAGGGUAAUAAUUAU [AK ExNG2-V2-3] (Eterna round: R96, puzzle: Exclusion NG 2) | 326 | 176 | 351 |  |  |  |
| UUAUUAAGUGUGAGGAUAUGCUGGUCCUUGGAUCAGCAGAAGGCACAUGAGGAUCACCCAUGUAAUAUAUUUAU [JL bmx4 3.09] (puzzle: Brourd's mod of Exclusion 4) |  |  |  | 75.8 |  |  |
